Test results taken from IntAct's records for PubMed 23624404.

Target: rad51_yeast RAD51 (UniProt P25454)
Sequence (P25454 whole entry): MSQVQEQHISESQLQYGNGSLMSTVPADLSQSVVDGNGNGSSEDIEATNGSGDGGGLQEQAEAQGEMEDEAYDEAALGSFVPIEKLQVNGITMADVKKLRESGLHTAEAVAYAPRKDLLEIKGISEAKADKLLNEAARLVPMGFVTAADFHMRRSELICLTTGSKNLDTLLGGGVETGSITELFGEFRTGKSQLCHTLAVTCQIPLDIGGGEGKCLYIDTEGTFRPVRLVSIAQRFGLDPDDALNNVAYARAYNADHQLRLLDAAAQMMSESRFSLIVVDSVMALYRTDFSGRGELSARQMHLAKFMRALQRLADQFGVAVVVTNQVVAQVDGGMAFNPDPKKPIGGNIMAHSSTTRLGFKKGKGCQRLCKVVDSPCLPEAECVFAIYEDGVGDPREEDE

“DNA repair and recombination protein RAD52 (Saccharomyces cerevisiae) (from UniProt P06778) K10R;K11R;K220R” was tested, and the “effect of a mutation on the interaction” value was “decreasing interaction strength”.
